Results reported in the supplement of paper PMC10567573.

B1: BCL2L13 (parent)
chain: YIIQQGGWGTVFSLESEEEEYPGI

Variants of: B1
Experiment: protein stability index of a GFP-peptide fusion (GPS, HEK-293T) (PSI 1-6); higher = more stable
Details: c terminus: a fixed tail appended
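Further: lentivirally expressed fusions sorted by FACS into six bins by GFP to DsRed ratio, PSI derived from sequencing read proportions per bin multiplied by bin number.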

Variant | protein stability index
YIIQQGGWGTVFSLESNEEEYPGI [E17N] | 2.31
YIIQQGGWGTVFSLESCEEEYPGI [E17C] | 2.77
YIIQQGGWGTVFSLESWEEEYPGI [E17W] | 2.52
YIIQQGGWGTVFSLESHEEEYPGI [E17H] | 2.65
YIIQQGGWGTVFSLESTEEEYPGI [E17T] | 2.81
YIIQQGGWGTVFSLESDEEEYPGI [E17D] | 1.19
YIIQQGGWGTVFSLESYEEEYPGI [E17Y] | 3.21
YIIQQGGWGTVFSLESFEEEYPGI [E17F] | 2.7
YIIQQGGWGTVFSLESIEEEYPGI [E17I] | 1.76
YIIQQGGWGTVFSLESAEEEYPGI [E17A] | 1.23
YIIQQGGWGTVFSLESPEEEYPGI [E17P] | 4.07
YIIQQGGWGTVFSLESEEEEYPKI [G23K] | 2.61
YIIQQGGWGTVFSLESEEEEYPAI [G23A] | 1.21
YIIQQGGWGTVFSLESEEEEYPII [G23I] | 1.76
YIIQQGGWGTVFSLESEEEEYPHI [G23H] | 1
YIIQQGGWGTVFSLESEEEEYPEI [G23E] | 2.43
YIIQQGGWGTVFSLESEEEEYPQI [G23Q] | 1.84
YIIQQGGWGTVFSLESEEEEYPDI [G23D] | 2.7
YIIQQGGWGTVFSLESEEEEYPMI [G23M] | 2.57
YIIQQGGWGTVFSLESEEEEYPNI [G23N] | 1.16
YIIQQGGWGTVFSLESEEEEYPFI [G23F] | 1.26
YIIQQGGWGTVFSLESEEEEYPLI [G23L] | 2.01
YIIQQGGWGTVFSLESEEEEYPPI [G23P] | 1.97
YIIQQGGWGTVFSLESEDEEYPGI [E18D] | 1.96

Variant | protein stability index
YIIQQGGWGTVFSLESESEEYPGI [E18S] | 2.56
YIIQQGGWGTVFSLESEQEEYPGI [E18Q] | 2.13
YIIQQGGWGTVFSLESEHEEYPGI [E18H] | 1.85
YIIQQGGWGTVFSLESENEEYPGI [E18N] | 2.86
YIIQQGGWGTVFSLESETEEYPGI [E18T] | 1.99
YIIQQGGWGTVFSLESEFEEYPGI [E18F] | 2.56
YIIQQGGWGTVFSLESELEEYPGI [E18L] | 1.92
YIIQQGGWGTVFSLESEPEEYPGI [E18P] | 1.53
YIIQQGGWGTVFSLEGEEEEYPGI [S16G] | 2.38
YIIQQGGWGTVFSLEEEEEEYPGI [S16E] | 1.59
YIIQQGGWGTVFSLENEEEEYPGI [S16N] | 1.83
YIIQQGGWGTVFSLEIEEEEYPGI [S16I] | 4.26
YIIQQGGWGTVFSLEDEEEEYPGI [S16D] | 1.76
YIIQQGGWGTVFSLEKEEEEYPGI [S16K] | 2.69
YIIQQGGWGTVFSLEFEEEEYPGI [S16F] | 2.94
YIIQQGGWGTVFSLEYEEEEYPGI [S16Y] | 2.61
YIIQQGGWGTVFSLETEEEEYPGI [S16T] | 2.25
YIIQQGGWGTVFSLEHEEEEYPGI [S16H] | 2.01
YIIQQGGWGTVFSLEVEEEEYPGI [S16V] | 1.65
YIIQQGGWGTVFSLEMEEEEYPGI [S16M] | 2.68
YIIQQGGWGTVFSLESEEEEYNGI [P22N] | 1.42
YIIQQGGWGTVFSLESEEEEYEGI [P22E] | 2.22
YIIQQGGWGTVFSLESEEEEYYGI [P22Y] | 1.38
YIIQQGGWGTVFSLESEEEEYKGI [P22K] | 2.65

Variant | protein stability index
YIIQQGGWGTVFSLESEEEEYTGI [P22T] | 2.02
YIIQQGGWGTVFSLESEEEEYSGI [P22S] | 2.18
YIIQQGGWGTVFSLESEEEEYMGI [P22M] | 1.42
YIIQQGGWGTVFSLESEEEEYLGI [P22L] | 2.9
YIIQQGGWGTVFSLESEEEEYIGI [P22I] | 3.56
YIIQQGGWGTVFSLESEEEEYDGI [P22D] | 2.69
YIIQQGGWGTVFSLESEEEEYAGI [P22A] | 2
YIIQQGGWGTVFSLESEEEEYVGI [P22V] | 1.37
YIIQQGGWGTVFSLESEEEEYHGI [P22H] | 1.7
YIIQQGGWGTVFSLESEEEEYQGI [P22Q] | 1.47
YIIQQGGWGTVFSLESEEEEYRGI [P22R] | 1.92
YIIQQGGWGTVFSLESEEQEYPGI [E19Q] | 3.34
YIIQQGGWGTVFSLESEEPEYPGI [E19P] | 1.82
YIIQQGGWGTVFSLESEEYEYPGI [E19Y] | 2.41
YIIQQGGWGTVFSLESEELEYPGI [E19L] | 2.41
YIIQQGGWGTVFSLESEECEYPGI [E19C] | 3.36
YIIQQGGWGTVFSLESEEREYPGI [E19R] | 1.93
YIIQQGGWGTVFSLESEEDEYPGI [E19D] | 1.19
YIIQQGGWGTVFSLESEEWEYPGI [E19W] | 2.31
YIIQQGGWGTVFSLESEESEYPGI [E19S] | 2.39
YIIQQGGWGTVFSLESEETEYPGI [E19T] | 2.34
YIIQQGGWGTVFSLESEEHEYPGI [E19H] | 2.29
YIIQQGGWGTVFSLESEEEMYPGI [E20M] | 1.31
YIIQQGGWGTVFSLESEEEAYPGI [E20A] | 1.13

Variant | protein stability index
YIIQQGGWGTVFSLESEEEIYPGI [E20I] | 3.47
YIIQQGGWGTVFSLESEEERYPGI [E20R] | 2.98
YIIQQGGWGTVFSLESEEEKYPGI [E20K] | 2.15
YIIQQGGWGTVFSLESEEENYPGI [E20N] | 2.17
YIIQQGGWGTVFSLESEEESYPGI [E20S] | 1.82
YIIQQGGWGTVFSLESEEECYPGI [E20C] | 1.91
YIIQQGGWGTVFSLESEEEGYPGI [E20G] | 1.51
YIIQQGGWGTVFSLESEEEPYPGI [E20P] | 2.87
YIIQQGGWGTVFSLESEEEDYPGI [E20D] | 1.71
YIIQQGGWGTVFSLESEEEHYPGI [E20H] | 2.46
YIIQQGGWGTVFSLESEEEETPGI [Y21T] | 1.21
YIIQQGGWGTVFSLESEEEEEPGI [Y21E] | 1.64
YIIQQGGWGTVFSLESEEEELPGI [Y21L] | 2.11
YIIQQGGWGTVFSLESEEEERPGI [Y21R] | 1.75
YIIQQGGWGTVFSLESEEEESPGI [Y21S] | 1.14
YIIQQGGWGTVFSLESEEEENPGI [Y21N] | 1.74
YIIQQGGWGTVFSLESEEEEDPGI [Y21D] | 2.22
YIIQQGGWGTVFSLESEEEEMPGI [Y21M] | 2.26
YIIQQGGWGTVFSLESEEEEQPGI [Y21Q] | 2.33
YIIQQGGWGTVFSLESEEEEHPGI [Y21H] | 2.53
YIIQQGGWGTVFSLESEEEEIPGI [Y21I] | 1.59
YIIQQGGWGTVFSLESEEEEGPGI [Y21G] | 2.02
